{"source": "the RNAGym collection of RNA variant scans (doi:10.7554/elife.80360)", "parents": {"B1": {"name": "Twister Ribozyme (parent)", "chain": "AACACUGCCAAUGCCGGUCCCAAGCCCGGAUAAAAGUGGAGGGGGCGG"}}, "data": [{"variants_of": "B1", "assay": "self-cleavage, relative activity (ratio to wild type); higher = more cleavage; co-transcriptional", "values": [{"variant": "A35G G36U", "self-cleavage": 0.765}, {"variant": "A35G G36C", "self-cleavage": 0.491}, {"variant": "A34G A40G", "self-cleavage": 0.111}, {"variant": "A34G A40U", "self-cleavage": 0.122}, {"variant": "A32U A35U", "self-cleavage": 1.13}, {"variant": "A35G G48A", "self-cleavage": 0.913}, {"variant": "A35G G48U", "self-cleavage": 0.882}, {"variant": "A35G G48C", "self-cleavage": 1.04}, {"variant": "A33G G36A", "self-cleavage": 0.509}, {"variant": "A33G G36U", "self-cleavage": 0.256}, {"variant": "A32G U37G", "self-cleavage": 0.716}, {"variant": "A34G C46A", "self-cleavage": 0.736}, {"variant": "A34G C46U", "self-cleavage": 0.834}, {"variant": "A34C G38C", "self-cleavage": 0.157}, {"variant": "A34C G38A", "self-cleavage": 0.232}, {"variant": "A34U G47U", "self-cleavage": 0.502}, {"variant": "A34U G47A", "self-cleavage": 0.601}, {"variant": "A34U G47C", "self-cleavage": 0.247}, {"variant": "A32U C46G", "self-cleavage": 0.973}, {"variant": "A32U C46A", "self-cleavage": 0.873}, {"variant": "U31C A40U", "self-cleavage": 0.149}, {"variant": "U31G G48C", "self-cleavage": 1.19}, {"variant": "U31C G41U", "self-cleavage": 0.764}, {"variant": "A35U G39U", "self-cleavage": 0.134}, {"variant": "A35U G39A", "self-cleavage": 0.316}, {"variant": "A34G G48U", "self-cleavage": 0.876}, {"variant": "A33G U37G", "self-cleavage": 0.601}, {"variant": "U31C G39U", "self-cleavage": 0.19}, {"variant": "A34U G45U", "self-cleavage": 0.59}, {"variant": "A33U A34C", "self-cleavage": 0.637}, {"variant": "A33U A34U", "self-cleavage": 0.847}, {"variant": "A34U G39A", "self-cleavage": 0.199}, {"variant": "A34U G39U", "self-cleavage": 0.139}, {"variant": "A32U G44C", "self-cleavage": 0.934}, {"variant": "A33U G44A", "self-cleavage": 0.907}, {"variant": "A33U G44C", "self-cleavage": 0.928}, {"variant": "A34C C46G", "self-cleavage": 0.154}, {"variant": "A34C C46U", "self-cleavage": 0.251}, {"variant": "A35C C46U", "self-cleavage": 0.879}, {"variant": "A35C C46G", "self-cleavage": 0.828}, {"variant": "A35C C46A", "self-cleavage": 0.98}, {"variant": "A33U G47U", "self-cleavage": 0.81}, {"variant": "A33U G47A", "self-cleavage": 0.739}, {"variant": "A34G", "self-cleavage": 0.874}, {"variant": "A34U", "self-cleavage": 0.915}, {"variant": "A34C", "self-cleavage": 0.378}, {"variant": "A35G A40G", "self-cleavage": 0.118}, {"variant": "A35G A40U", "self-cleavage": 0.107}, {"variant": "A34G G38U", "self-cleavage": 0.677}, {"variant": "A33G G42A", "self-cleavage": 0.215}, {"variant": "A35C G39A", "self-cleavage": 0.221}, {"variant": "A35C G39C", "self-cleavage": 0.153}, {"variant": "A34G G45C", "self-cleavage": 0.274}, {"variant": "A33U A35C", "self-cleavage": 0.961}, {"variant": "A33U A35G", "self-cleavage": 0.8}, {"variant": "A33U A35U", "self-cleavage": 0.926}, {"variant": "A35U G36A", "self-cleavage": 0.593}, {"variant": "A35U G36C", "self-cleavage": 0.592}, {"variant": "A33C G38A", "self-cleavage": 0.867}, {"variant": "A33C G38U", "self-cleavage": 0.72}, {"variant": "A33G A35U", "self-cleavage": 0.789}, {"variant": "A33G A35G", "self-cleavage": 0.865}, {"variant": "U31C A33U", "self-cleavage": 1.08}, {"variant": "U31C A33G", "self-cleavage": 0.891}, {"variant": "A33C U37C", "self-cleavage": 0.354}, {"variant": "A33C U37G", "self-cleavage": 0.626}, {"variant": "A34G G44C", "self-cleavage": 0.783}, {"variant": "A34G G44U", "self-cleavage": 0.722}, {"variant": "A32U G43A", "self-cleavage": 0.239}, {"variant": "A32U G43U", "self-cleavage": 0.384}, {"variant": "A32C C46U", "self-cleavage": 0.863}, {"variant": "U31C G44U", "self-cleavage": 1.01}, {"variant": "A35U U37A", "self-cleavage": 0.834}, {"variant": "A34U G41U", "self-cleavage": 0.185}, {"variant": "A34U G41C", "self-cleavage": 0.176}, {"variant": "A34U G41A", "self-cleavage": 0.163}, {"variant": "A35U G44C", "self-cleavage": 0.974}, {"variant": "A35U G44U", "self-cleavage": 0.92}, {"variant": "A35G G42U", "self-cleavage": 0.133}, {"variant": "A35G G42A", "self-cleavage": 0.115}, {"variant": "A35G G42C", "self-cleavage": 0.141}, {"variant": "A35U G42U", "self-cleavage": 0.374}, {"variant": "A35C G48U", "self-cleavage": 0.978}, {"variant": "A35C G48A", "self-cleavage": 0.917}, {"variant": "A35C G48C", "self-cleavage": 1.08}, {"variant": "A34U C46G", "self-cleavage": 0.839}, {"variant": "A34U C46U", "self-cleavage": 0.84}, {"variant": "U31G G44U", "self-cleavage": 0.882}, {"variant": "A35G G39U", "self-cleavage": 0.18}, {"variant": "A35G G39A", "self-cleavage": 0.374}, {"variant": "A33C G39C", "self-cleavage": 0.12}, {"variant": "A33C G39U", "self-cleavage": 0.21}, {"variant": "A33U G45C", "self-cleavage": 0.554}, {"variant": "A34C A35U", "self-cleavage": 0.811}, {"variant": "A34C A35G", "self-cleavage": 0.212}, {"variant": "A35G G47C", "self-cleavage": 0.562}, {"variant": "A35G G47U", "self-cleavage": 0.81}, {"variant": "A33G G44A", "self-cleavage": 0.79}, {"variant": "A33C G41U", "self-cleavage": 0.265}, {"variant": "A32U U37C", "self-cleavage": 0.669}, {"variant": "A32U U37A", "self-cleavage": 0.74}, {"variant": "A32U U37G", "self-cleavage": 0.737}, {"variant": "A33C A40G", "self-cleavage": 0.182}, {"variant": "A33C A40C", "self-cleavage": 0.131}, {"variant": "A33C A40U", "self-cleavage": 0.1}, {"variant": "A34G G39C", "self-cleavage": 0.109}, {"variant": "A34G G39U", "self-cleavage": 0.102}, {"variant": "A35U G38C", "self-cleavage": 0.973}, {"variant": "A33G G39A", "self-cleavage": 0.362}, {"variant": "A33G G39U", "self-cleavage": 0.222}, {"variant": "A33G G39C", "self-cleavage": 0.118}, {"variant": "A33U G36U", "self-cleavage": 0.132}, {"variant": "A33U G36A", "self-cleavage": 0.282}, {"variant": "A35U G48A", "self-cleavage": 1.02}, {"variant": "A35C G47U", "self-cleavage": 0.932}, {"variant": "A35C G47A", "self-cleavage": 0.832}, {"variant": "U31C G36A", "self-cleavage": 0.725}, {"variant": "U31G A32U", "self-cleavage": 0.765}, {"variant": "A32U G39C", "self-cleavage": 0.144}, {"variant": "A32U G39A", "self-cleavage": 0.596}, {"variant": "A32U G39U", "self-cleavage": 0.158}, {"variant": "A32C U37G", "self-cleavage": 0.625}, {"variant": "A34G A35U", "self-cleavage": 0.92}, {"variant": "A34G A35G", "self-cleavage": 0.526}, {"variant": "A32G A40U", "self-cleavage": 0.117}, {"variant": "A32G A40C", "self-cleavage": 0.226}, {"variant": "A34U G44C", "self-cleavage": 0.766}, {"variant": "A34U G44A", "self-cleavage": 0.893}, {"variant": "A32U G47U", "self-cleavage": 0.83}, {"variant": "A32U G47A", "self-cleavage": 0.883}, {"variant": "A32U G47C", "self-cleavage": 0.583}, {"variant": "A34U U37G", "self-cleavage": 0.372}, {"variant": "G36A A40C", "self-cleavage": 0.115}, {"variant": "A33G A40U", "self-cleavage": 0.184}, {"variant": "A32G", "self-cleavage": 0.961}, {"variant": "A32C", "self-cleavage": 0.967}, {"variant": "A32U", "self-cleavage": 0.975}, {"variant": "A34C G42A", "self-cleavage": 0.143}, {"variant": "A34C G42U", "self-cleavage": 0.113}, {"variant": "A34C G42C", "self-cleavage": 0.184}, {"variant": "A33C G44A", "self-cleavage": 0.832}, {"variant": "A33C G44C", "self-cleavage": 0.852}, {"variant": "A32U A40G", "self-cleavage": 0.108}, {"variant": "A32U A40C", "self-cleavage": 0.204}, {"variant": "A32U A33G", "self-cleavage": 0.891}, {"variant": "A32G G38U", "self-cleavage": 0.846}, {"variant": "A33U A40U", "self-cleavage": 0.157}, {"variant": "A33U A40C", "self-cleavage": 0.234}, {"variant": "A32G A35U", "self-cleavage": 0.986}, {"variant": "A32G A35G", "self-cleavage": 0.718}, {"variant": "U31C A34C", "self-cleavage": 0.196}, {"variant": "U31C A34U", "self-cleavage": 0.739}, {"variant": "A34U G43A", "self-cleavage": 0.209}, {"variant": "A32U G38C", "self-cleavage": 1.12}, {"variant": "U31G A34C", "self-cleavage": 0.477}, {"variant": "U31G G43A", "self-cleavage": 0.324}, {"variant": "A34C U37G", "self-cleavage": 0.249}, {"variant": "A34C U37C", "self-cleavage": 0.116}, {"variant": "A34C U37A", "self-cleavage": 0.169}, {"variant": "U31C G47C", "self-cleavage": 0.745}, {"variant": "U31C G47U", "self-cleavage": 1.02}, {"variant": "A32U G41U", "self-cleavage": 0.659}, {"variant": "A32U G41C", "self-cleavage": 0.284}, {"variant": "A33C G36A", "self-cleavage": 0.175}, {"variant": "A33U U37A", "self-cleavage": 0.688}, {"variant": "A33U U37G", "self-cleavage": 0.591}, {"variant": "A32G G44U", "self-cleavage": 1.06}]}]}
